# Experimental data: the DeepSol protein solubility set
# Test: soluble on expression in E. coli; label from the status in PepcDB or PDB records
row,Sequence,soluble on expression in E. coli
1,MSLRVENLRSSTYRNGPTGLPNRARFSEDLDAVLLQRTADSAATAIAVDLCGSDYFRDMVKALGWDYADGYVALAYKRLISKLPAGTALYRLDTTTFAFMVTTADPLRLSALCSKISKGFVAPLEHQGIPHTAVASIGAVLLETSYGAADTLRSLTTSVDVAREHCLTWSLYERKHDVVQRNTFRLLAALPAALASSNQLRLHYQPRVDLHDHRCVAVEALLRWQHPMIGPVMPSDFIPMAEKTALINRITAWVIDQGIAQAARWQQQGLDFNLALNVSAADLDQPGFVGLLRRGLDRHKLDPRRLEIEFTESAMIRHPEHLSEQLAAVAALGVHIAIDDFGTGYSNFSYLKQLPASSLKIDQSFVRSLPDSRTDRTLVPAMIQLGHSLGQRVVAEGIESAQAYAQLRSWGCDEGQGYWIAKPMPAAALEAWLETPWYQRATDAEGHHHHHH,soluble
2,MSLSAADMTQTIKTLALNVRLSCELLGVPESSYYERINRRPSETQLRRQHLTLKIVQLFKANRGIYGAPKIHHLLLDKEEKVGVKLVQKIMQQLQLKSVVLKKFKPGYSASDGINRKNLVQNEPTERNKVWSTDITYIPTQQGWAYLSTIMDRYTKKVIAWDLGKRMTVELVQRTLNKAIKSQDYPEAVILHSDQGSQYTSLEYEELLKYYGMTHSFSRRGYPYHNASLESWHGYLKREWVYQFKYKNFEEAYQSIFWYIEAFYNSKRIHQSLGYLTPNQFEKVSAEGHHHHHH,not soluble
3,MSLSALFCQAAAVAVTISGFAFSPAQTTVQVGDVITWTNMDNTLHSIVSTAVPAGAAPFTSGTFGKNETFTYTVTEAGDYTYQCGVHTSMLGAFTATITTPVVKPTLILEALYPNPASASIHIESPKSIKSIDIYSETGVLVKTLAFTSASVDVPIGELNKGAYLLRITSEDGMFDTRRIIKEGHHHHHH,soluble
4,MSLSATSNSNWDRRSVLRAAAGLAALGPLAACGSNTGRSGGGSSGESLVQYFHAYGEAGTEQAIRRYAKAYDKAAVTTQWITGTNFESKLFSALLTDNAPDVFEFHPQLQMIKSGQVAALDDIIDPVKDDFNPADITSHTVDGKVYGVRMIDDPQFFFYRKSLLEKAGTGVPQTLDELAEAAAKLTTDKVKGLFLGNNMVAPNYALVWAAGADQLNAKNEIAYHTDEVAAALKVYRKMFTSGHLLLDAPADYWDPSALVQGLTAIQWCGMWAMPVMQQALGDDLGIFPFPSAASGAKPAVYNGGWSMFVNAKGKNVDLAKEYVKWLWIDQKKYQEDWALSYGFHIPPRTSTAESATKLKSGLPAEGVKLFTDYGRFDNVSWTQAMISALEGVIADAVRKGKDPEAALDTADKKVNRELKNLFGEGHHHHHH,soluble
5,MSLSCWKPLSKEEFEAIVSKYKDNPKIEIDYENLKFIPKFNEQIKKYYSNKIKGAKVENLVNEVYEAWFDYIIRIYERPKEKDILMFLPCAAKKPYYKSKTHRTIQRAISGFQIFNRIHRVIVSNPGIIPWEFHTYWPFNSYDWPEWEETEDIKKLYYWVTYKRVKEFLRRHQYNYYTVYMKPDSLTYKAVMDASKELNIKIIPLLDEKTYEKCKGQGNPLVKEPCIESLKNNLKQLQKQIYEGSNSEGHHHHHH,soluble
6,MSLSDDPMASIKLLNLERENSAIAQYQSNIANLKTTLSSQETHLDSVNESLKSMRDIVLWGANGSLTDQDRSGMITELKSYRDSIESSFNAQDEEGHFLFSGTKTDTAALNKSSGAYVVEGNSDVRVVTVAKGVTMDSNMTAQEILDIGGGKNVLNQIDALIAEFEKPSPNFQAEVDASLNAIDDTMANVLGAMTEIGGRHNNLDLMDGAHSENKLFVDKVSGDLSALDYGEASVRLSNYMAALQATQASYVKINDLSLFDREGHHHHHH,soluble
7,MSLSEDLFDVEVRNFEEGDKVTGTVTSVEDKQVYVGIPGSKLDGVVPISELSNIHVETASDVVSVGDTLDLIVTKVEDDILVLSKRKVDAEKASDDIKAKFESGEVFEAVVSDVVKGGLVVDLGVRAFVPASLVEDHFVEDFADYKGTTLTFKVVEFEPENNRVILSHRAVVETEKASQKQALLSEIKEGDVIEGTVQRLANFGAFVDIGGVDGLVHISQISYKHIATPQEALEEGQKVTVKVIGIDPENERISLSIKATLPGPWDGIAEKAPVGSVLEGKVVRLVTFGAFVEIFPGVEGLVHISQISHEHIGTPQEVLSEGQTVEVKVLEVNEADKRLSLSIKELKDAPVEEADYELPEENTGFQMSDLIGDKLKGLQNDDKEGHHHHHH,soluble
8,MSLSEFLTKNEEKIEKIVKFHRSFDEMSQTQRQAWLEEMGDINIEHFFKANQRVFDEDGPRERSIPRRDFFLDVIKNRVKSDPLLQPKGHPVTNYLQENIHIRKLCEKITDTFCVEEIASYDAALNLLYELSKIHTHYLRKEDQLFPYLEKHNFTYPSTGMWKFQDEIRANLKMVIKAFEKNELNKEMQTLMRDVVKDIFDMTTREEKMLLPTSVKLLSNEEWIKMRKEEQEIGYVFIQSPPMWPEDESHKPDMASSLGSIFLQEGSLSQEQLNLFFSHLPFDVTFVDENDRVAFFNKGSERTFLRSAGVIGREVKFCHPPKSVDAVLKILEAFKAGTKESAEFWITFGGRLIHIRYFALRDSEKNYKGVVEITQDITDIKNIEGERRLLDWEEGHHHHHH,soluble
9,MSLSEIDQVSYNFHIRPILSDKCFACHGPDANKREADLRLDTEEGAFKALKESPGKFALVSGKPEESELFHRITSEDPGELMPPTESNLVLSDTEIGLIKKWIEQGAEYEPHWAFTKAEKPELPSENEWAVNEIDRFVYQKMVEKGLEPNPKADPQELIKRASLDITGLPPSPEILDQYSDLSNDAYQNLLDGLLADPSFGEKLGVLWMDISRYADSYGYQDDNIRSQWPYRDWVIHAFNENMPYDQFITYQLAGDLLPNATKEQILATAFNRNHKYTEEGGVIDEEYRIEYVLDKTNTFSKGVLGITMECAQCHDHKYDPFSQKDYYELFAFFNNTPEKGYEGDVSVSKPAKTPILWVDQEGHHHHHH,soluble
10,MSLSFELNPIFKRPSVSRELTKRFFFSANNGTRIILFQDSTIRWSFSSDNDHYQSMALRDSDMDVTGAIISDPGDYLCLYNSHQIRVIEIPWGLTNVDEISNSMASSLQERVYNFNEDKLSVKQVLFHPLSKSSPFLVVLFSGSQIAFVDLKNVFKSSDIPIDCFLNLTDSNVMGIDNRVENIQYVVFADDCLSLYSLTDTDVYCFYPCLPPVASLSKNRVDELINKSIVLYENLGIDADDIVRKNVIKQLQLASSLRKKIEEFENANGEVEVNVEIDLEFRQTKAQGYFSISPYPESLYTCTGKQISVLPIGEGNELFLVSFDNGTVLVVFKDKESTMSWDVNDYSFNNSFTLVEIIKFKPEELSNMVVLQGELGKFVVSGEKSTILVDTTKWSSVISKCIRDNDLRPLVGLEMKSTITHINSDMQINSCGIWNSGEAKSLLLVDTNVVVGYQLFKKEVEFKPESAEEISTELENFTLDKFTVPENELKAANYKFQEAVSVPYSKVIPANIKQVPFGSNAMEEQLKILNDISRDVGSKIVQGQSLGLMLYDRLLEQQDKLSEQLIITNKILIRAKKVQGDYPAQLSKLDEKLKKQEHLEKILLKMESNLNTIQESQKLKSLPLSEKEIQLFKELRSQILLFNNFVHKQKDQKQNIQFLKKELQKIIDISRSESSKGMLNEWEELRQILADDAKIIKECNEQLTQISKELDTKNTVTNSEGHHHHHH,soluble
11,MSLSHLVVFDLDGTLTRQRGGFELLHTLYGTTPEAETLMNRFEAGEITFTEWCQGAVDMWRANDITRSDITRATRALKPKAGAVDLLAHLQQTDIRFGILSAGVANLAARFEPYEPAFVRGNWLQFEDRRVSAIDIGVGPNEKGELLRKIRSKQNPVSITYIGDSHTDTEAFIEADTAVLFDPDERVPETAIDAADTIIESADIAEVQNCIPTEGHHHHHH,not soluble
12,MSLSIADNLKQVLAELPQGVRLVAVSKFHPNEAIEEAYQAGQRIFGESKVQEMTAKYETLPKDIEWHFIGHLQTNKIKYMIPYVEMIHGIDTYKLLAEVNKQAAKAGRIVNCLIQIHVAQEETKFGFSPEECKDMLHAGEWKELSHIRICGLMGMASNTDDVEQINREFCLLNRLFQEIKANWFADSDTFRELSMGMSHDYHEAIAAGSTLVRVGSKIFGERNYNTEGHHHHHH,soluble
13,MSLSINSETLVNHMNHEIAAIQPSDILAFNAEIANIPGIVRLTLGEPDFNTPEHVKQAAIESIEADESHYAPSNGTLALRTAAAEFLAAKYDVHYDPASEVIITAGATGGIYTALTSILNPGDEVLIPTPIFPLYIAIVKLSGATPVFMDTSDNGFVLSPDQLQTTLAAHPKTKAVVLNFPSNPTGVTYRHDDLKALAAVLADQPIFVLSDEIYSELTYGEPHESIANYLPTQTILLNGVSKSHAMTGWRIGIMCAPKAITAQLGKIHQFTVTSTTTNAQAAAAGLKQLTSRTAGVDTIDIPAAKAAGLVVTNVEGHHHHHH,not soluble
14,MSLSIPLILASQSRPRRDVLFSAGICPTIRVSHVDEPAALEREAAALGVTVNDLSVEQRVMILATAKAEAVHQAYRNIADTAAHARGERVVGFPLRAADDRDASSAGTAARTDSAQSADETKTRDFSGIAIPTVAEPIADFVDGRPSLTRSKAGPLILGCDSMFLLDGECYGKPHSEEVARERLRAMRGATGELWTGHCLIDFASGRMVRGASKATLHFCEYSDLDIERYIATGEPLEVAGSFTLEGFGGAFIDSIEGDPHGIIGLSLPLARRLAAQLGVEWTDLWNVTRSDLAPDAEYDAKTGAAKPLPPKENVHQPGDGWVDCACGRKHWGTNGASGVLLARRSETTGEVTHVVMQHRAVWSAEGGTWGIPGGATADGESPIEGALRESYEEANITPEDIDVVGSYCEDHGPWSYTTVFAFEKPGHRIEPKANDDESMEIEWVPVDDVPNRKLLTAMRTDWPNFAARLRALAAVREGHHHHHH,soluble
15,MSLSISEKPLSELLRPKDFEDFVGQDHIFGNKGILRRTLKTGNMFSSILYGPPGSGKTSVFSLLKRYFNGEVVYLSSTVHGVSEIKNVLKRGEQLRKYGKKLLLFLDEIHRLNKNQQMVLVSHVERGDIVLVATTTENPSFVIVPALLSRCRILYFKKLSDEDLMKILKKATEVLNIDLEESVEKAIVRHSEGDARKLLNTLEIVHQAFKNKRVTLEDLETLLGNVSGYTKESHYDFASAFIKSMRGSDPNAAVYYLVKMIEMGEDPRFIARRMIIFASEDVGLADPNALHIAVSTSIAVEHVGLPECLMNLVECAVYLSLAPKSNSVYLAMKEGHHHHHH,not soluble
16,MSLSKHHIIVKSGSTLEQLAKAKTFAFDKTGTLTQNQLVIQDVLPENGFDKETIQSYAASLEQQSDHIIANSLVQGTDKNLIQAVSNLQESTGNGVSGTVDGKNVMVGKLSYVAPDANVNKAKTTAVYVSVDGKYAGCITFKDRLRPETPQTLARLRKQGAKHIMMLTGDNKDVAQAIADVAGVDDVRASLLPAQKIEAIKNVAPENRPVVMTGDGINDAPSLTAADVGIAMGAKGASAASESADAVIMVNDLSKINDAVAIAKHTMKVAEGHHHHHH,soluble
17,MSLSLEERERAVELYFTTPMTTAQVVEHLGYPTRQCLERWLAMDSRYAGHMAKPIIPLETRRRAVELVLGGMQQKQAAKQLGVSVGAVHGWVRAYRKGGMAALQPKNRNSAQGNKPADSRRRPSAADDDDAEALRRRVEELELENALMREVVEVVKKDPGADLRRLSNREKTLLIDRLRPAYSLRSMTCLLAIAPSSYHYHHARLGVDKYAGLRAEVAGAFADSKGRYGYRRIKAVLKTGVSEKVVRRIMAEEGLVAHVPKRRRYSSYEGETTPAPANLVDRDFTAERPNEKWLTDISEIKARDGKVYLSPMIDCFDGKIVAYTAGFSPNAELANRMLEKAASTLPGNARPLVHSDRGCHYRWPGWLGLMERFGLTRSMSAKGCSPDNAAAEGFFGRMKTESVYPEHWEKRTRDEVLILIDDYIRWYNHERIKRSLGWMSPVQYRQSQGMAEGHHHHHH,not soluble
